Measured values taken from US11278600B2, “Human alpha-galactosidase variants” (Codexis, Inc., priority 2014, dated 2022).

Assays:
Format in all cases: biochemical
[1] = HTP-analysis of supernatants pretreated with base (MUGal hydrolysis); settings: activity of the variant/activity of Rd4BB (SEQ ID NO: 15); challenge at pH 9.65
Procedure, shortened: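 GLA variants were secreted by transformed INVSc1 yeast grown 66-84 h at 30° C. Supernatants were exposed to neutral-to-basic buffers (pH 7.0-9.7) at 37° C for 1-18 h, then assayed with MUGal in acidic citrate/McIlvaine buffer, with fluorescence read after quenching.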

[2] = HTP-analysis of yeast culture supernatants, no challenge (MUGal hydrolysis); settings: activity of the variant/activity of Rd4BB (SEQ ID NO: 15)
Procedure, shortened: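 GLA variants were expressed in INVSc1 yeast grown in SD-Ura broth with glucose at 30° C., and culture supernatants were collected after 66-84 h. Supernatant was mixed with McIlvaine buffer pH 4.8 and MUGal (2 mM stock) in 50 mM citrate, 200 mM KCl, pH 4.6, incubated at 37° C. for 30-180 minutes, then quenched with sodium carbonate.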

[3] = HTP-analysis of supernatants pretreated with acid (MUGal hydrolysis); settings: activity of the variant/activity of Rd4BB (SEQ ID NO: 15); challenge at pH 3.7
Procedure, shortened: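 Yeast INVSc1 supernatant, GLA variants; acid challenge: McIlvaine pH 3.3-4.3, 37° C., 1-3 h. Assay: MUGal in McIlvaine pH 4.8 plus citrate pH 4.3, 37° C., 30-180 min, Na2CO3 stop, Ex 355/Em 448 nm.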

Molecule	Relative Activity of GLA Variants After Challenge at pH 9.65 [1]	Relative Activity of GLA Variants After No Challenge (NC) [2]	Relative Activity of GLA Variants After Challenge at pH 3.7 [3]
376 (protein, Synthetic Polypeptide sequence of Variant No. 376 of mature Human GLA) LDNGLARTPTMGWLHWERFMCNLDCQEEPDSCISEKLFMEPAERMVSEGWKDAGYEYLCIDDCWMAPQRDSEGRLQADPQRFPHGIRQLANYVHSKGLKLGIYADVGNKTCAGFPGSFGYYDIDAQTFADWGVDLLKFDGCYCDSLENLADGYKHMSLALNRTGRSIVYSCEWPLYMWPFQKPNYTEIRQYCNHWRNFADIDDSWKSIKSILDWTSRNQERIVDVAGPGGWNDPDMLVIGNFGLSWDQQVTQMALWAIMAAPLFMSNDLRHISPQAKALLQDKDVIAINQDPLGKQGYQLRKGDNFEVWERPLSGDAWAVAIINRQEIGGPRSYTIPVASLGKGVACNPACFITQLLPVKRQLGFYNWTSRLKSHINPTGTVLLQLENTMQMSLKDLL	− (<0.5 relative activity over Rd4BB (SEQ ID NO: 15))	− (<0.5 relative activity over Rd4BB (SEQ ID NO: 15))	− (<0.5 relative activity over Rd4BB (SEQ ID NO: 15))
377 (protein, Synthetic Polypeptide sequence of Variant No. 377 of mature Human GLA) LDNGLARTPTMGWLHWERFMCNLDCQEEPDSCISEKLFTEMAERMVSEGWKDAGYEYLCIDDCWMAPQRDSEGRLQADPQRFPHGIRQLANYVHSKGLKLGIYADVGNKTCAGFPGSFGYYDIDAQTFADWGVDLLKFDGCYCDSLENLADGYKHMSLALNRTGRSIVYSCEWPLYMWPFQKPNYTEIRQYCNHWRNFADIDDSWKSIKSILDWTSRNQERIVDVAGPGGWNDPDMLVIGNFGLSWDQQVTQMALWAIMAAPLFMSNDLRHISPQAKALLQDKDVIAINQDPLGKQGYQLRKGDNFEVWERPLSGDAWAVAIINRQEIGGPRSYTIPVASLGKGVACNPACFITQLLPVKRQLGFYNWTSRLKSHINPTGTVLLQLENTMQMSLKDLL	− (<0.5 relative activity over Rd4BB (SEQ ID NO: 15))	+ (0.5 to 1.5 relative activity over Rd4BB (SEQ ID NO: 15))	++ (>1.5 to 2.5 relative activity over Rd4BB (SEQ ID NO: 15))
378 (protein, Synthetic Polypeptide sequence of Variant No. 378 of mature Human GLA) LDNGLARTPTMGWLHWERFMCNLDCQEEPDSCISEKLFMEMAETMVSEGWKDAGYEYLCIDDCWMAPQRDSEGRLQADPQRFPHGIRQLANYVHSKGLKLGIYADVGNKTCAGFPGSFGYYDIDAQTFADWGVDLLKFDGCYCDSLENLADGYKHMSLALNRTGRSIVYSCEWPLYMWPFQKPNYTEIRQYCNHWRNFADIDDSWKSIKSILDWTSRNQERIVDVAGPGGWNDPDMLVIGNFGLSWDQQVTQMALWAIMAAPLFMSNDLRHISPQAKALLQDKDVIAINQDPLGKQGYQLRKGDNFEVWERPLSGDAWAVAIINRQEIGGPRSYTIPVASLGKGVACNPACFITQLLPVKRQLGFYNWTSRLKSHINPTGTVLLQLENTMQMSLKDLL	+ (0.5 to 1.5 relative activity over Rd4BB (SEQ ID NO: 15))	+ (0.5 to 1.5 relative activity over Rd4BB (SEQ ID NO: 15))	− (<0.5 relative activity over Rd4BB (SEQ ID NO: 15))
